This is an account of results in IntAct's records for PubMed 31515488.

B1: Cyclic AMP-dependent transcription factor ATF-4 (Homo sapiens), P18848 (parent)
chain: MTEMSFLSSEVLVGDLMSPFDQSGLGAEESLGLLDDYLEVAKHFKPHGFSSDKAKAGSSEWLAVDGLVSPSNNSKEDAFSGTDWMLEKMDLKEFDLDALLGIDDLETMPDDLLTTLDDTCDLFAPLVQETNKQPPQTVNPIGHLPESLTKPDQVAPFTFLQPLPLSPGVLSSTPDHSFSLELGSEVDITEGDRKPDYTAYVAMIPQCIKEEDTPSDNDSGICMSPESYLGSPQHSPSTRGSPNRSLPSPGVLCGSARPKPYDPPGEKMVAAKVKGEKLDKKLKKMEQNKTAATRYRQKKRAEQEALTGECKELEKKNEALKERADSLAKEIQYLKDLIEEVRKARGKKRVP
B2: Ras and Rab interactor 1 (Homo sapiens), Q13671 (parent)
chain: MESPGESGAGSPGAPSPSSFTTGHLAREKPAQDPLYDVPNASGGQAGGPQRPGRVVSLRERLLLTRPVWLQLQANAAAALHMLRTEPPGTFLVRKSNTRQCQALCMRLPEASGPSFVSSHYILESPGGVSLEGSELMFPDLVQLICAYCHTRDILLLPLQLPRAIHHAATHKELEAISHLGIEFWSSSLNIKAQRGPAGGPVLPQLKARSPQELDQGTGAALCFFNPLFPGDLGPTKREKFKRSFKVRVSTETSSPLSPPAVPPPPVPVLPGAVPSQTERLPPCQLLRRESSVGYRVPAGSGPSLPPMPSLQEVDCGSPSSSEEEGVPGSRGSPATSPHLGRRRPLLRSMSAAFCSLLAPERQVGRAAAALMQDRHTAAGQLVQDLLTQVRAGPEPQELQGIRQALSRARAMLSAELGPEKLLSPKRLEHVLEKSLHCSVLKPLRPILAARLRRRLAADGSLGRLAEGLRLARAQGPGAFGSHLSLPSPVELEQVRQKLLQLLRTYSPSAQVKRLLQACKLLYMALRTQEGEGAGADEFLPLLSLVLAHCDLPELLLEAEYMSELLEPSLLTGEGGYYLTSLSASLALLSGLGQAHTLPLSPVQELRRSLSLWEQRRLPATHCFQHLLRVAYQDPSSGCTSKTLAVPPEASIATLNQLCATKFRVTQPNTFGLFLYKEQGYHRLPPGALAHRLPTTGYLVYRRAEWPETQGAVTEEEGSGQSEARSRGEEQGCQGDGDAGVKASPRDIREQSETTAEGGQGQAQEGPAQPGEPEAEGSRAAEE
partner: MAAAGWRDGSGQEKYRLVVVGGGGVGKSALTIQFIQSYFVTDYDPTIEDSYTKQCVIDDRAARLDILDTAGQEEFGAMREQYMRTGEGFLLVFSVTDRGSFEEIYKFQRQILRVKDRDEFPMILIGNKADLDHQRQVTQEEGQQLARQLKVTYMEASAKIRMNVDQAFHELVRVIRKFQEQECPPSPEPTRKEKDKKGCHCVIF
B3: Calcium-binding and coiled-coil domain-containing protein 2 (Homo sapiens), Q13137 (parent)
chain: MEETIKDPPTSAVLLDHCHFSQVIFNSVEKFYIPGGDVTCHYTFTQHFIPRRKDWIGIFRVGWKTTREYYTFMWVTLPIDLNNKSAKQQEVQFKAYYLPKDDEYYQFCYVDEDGVVRGASIPFQFRPENEEDILVVTTQGEVEEIEQHNKELCKENQELKDSCISLQKQNSDMQAELQKKQEELETLQSINKKLELKVKEQKDYWETELLQLKEQNQKMSSENEKMGIRVDQLQAQLSTQEKEMEKLVQGDQDKTEQLEQLKKENDHLFLSLTEQRKDQKKLEQTVEQMKQNETTAMKKQQELMDENFDLSKRLSENEIICNALQRQKERLEGENDLLKRENSRLLSYMGLDFNSLPYQVPTSDEGGARQNPGLAYGNPYSGIQESSSPSPLSIKKCPICKADDICDHTLEQQQMQPLCFNCPICDKIFPATEKQIFEDHVFCHSL
partner: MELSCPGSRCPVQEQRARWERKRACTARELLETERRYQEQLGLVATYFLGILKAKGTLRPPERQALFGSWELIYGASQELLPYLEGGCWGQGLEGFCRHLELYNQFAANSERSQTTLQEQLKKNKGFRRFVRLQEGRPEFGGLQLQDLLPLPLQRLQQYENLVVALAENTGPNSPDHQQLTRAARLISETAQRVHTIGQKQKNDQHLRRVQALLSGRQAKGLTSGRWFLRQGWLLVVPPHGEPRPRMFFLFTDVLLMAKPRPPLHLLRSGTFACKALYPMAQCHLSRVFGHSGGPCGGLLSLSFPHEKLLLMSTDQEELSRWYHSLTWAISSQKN
B4: Copper homeostasis protein cutC homolog (Homo sapiens), Q9NTM9 (parent)
chain: MKRQGASSERKRARIPSGKAGAANGFLMEVCVDSVESAVNAERGGADRIELCSGLSEGGTTPSMGVLQVVKQSVQIPVFVMIRPRGGDFLYSDREIEVMKADIRLAKLYGADGLVFGALTEDGHIDKELCMSLMAICRPLPVTFHRAFDMVHDPMAALETLLTLGFERVLTSGCDSSALEGLPLIKRLIEQAKGRIVVMPGGGITDRNLQRILEGSGATEFHCSARSTRDSGMKFRNSSVAMGASLSCSEYSLKVTDVTKVRTLNAIAKNILV
partner: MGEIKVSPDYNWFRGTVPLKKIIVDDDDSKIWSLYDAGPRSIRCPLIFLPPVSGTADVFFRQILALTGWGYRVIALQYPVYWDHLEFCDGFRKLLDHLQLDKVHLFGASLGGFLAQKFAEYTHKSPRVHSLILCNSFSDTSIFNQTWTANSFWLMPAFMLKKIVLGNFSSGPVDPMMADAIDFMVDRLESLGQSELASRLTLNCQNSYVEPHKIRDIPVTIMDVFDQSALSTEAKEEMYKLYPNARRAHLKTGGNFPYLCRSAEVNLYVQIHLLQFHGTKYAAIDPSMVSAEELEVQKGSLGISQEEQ
B5: Segment polarity protein dishevelled homolog DVL-2 (Homo sapiens), O14641 (parent)
chain: MAGSSTGGGGVGETKVIYHLDEEETPYLVKIPVPAERITLGDFKSVLQRPAGAKYFFKSMDQDFGVVKEEISDDNARLPCFNGRVVSWLVSSDNPQPEMAPPVHEPRAELAPPAPPLPPLPPERTSGIGDSRPPSFHPNVSSSHENLEPETETESVVSLRRERPRRRDSSEHGAGGHRTGGPSRLERHLAGYESSSTLMTSELESTSLGDSDEEDTMSRFSSSTEQSSASRLLKRHRRRRKQRPPRLERTSSFSSVTDSTMSLNIITVTLNMEKYNFLGISIVGQSNERGDGGIYIGSIMKGGAVAADGRIEPGDMLLQVNDMNFENMSNDDAVRVLRDIVHKPGPIVLTVAKCWDPSPQAYFTLPRNEPIQPIDPAAWVSHSAALTGTFPAYPGSSSMSTITSGSSLPDGCEGRGLSVHTDMASVTKAMAAPESGLEVRDRMWLKITIPNAFLGSDVVDWLYHHVEGFPERREARKYASGLLKAGLIRHTVNKITFSEQCYYVFGDLSGGCESYLVNLSLNDNDGSSGASDQDTLAPLPGATPWPLLPTFSYQYPAPHPYSPQPPPYHELSSYTYGGGSASSQHSEGSRSSGSTRSDGGAGRTGRPEERAPESKSGSGSESEPSSRGGSLRRGGEASGTSDGGPPPSRGSTGGAPNLRAHPGLHPYGPPPGMALPYNPMMVVMMPPPPPPVPPAVQPPGAPPVRDLGSVPPELTASRQSFHMAMGNPSEFFVDVM
partner: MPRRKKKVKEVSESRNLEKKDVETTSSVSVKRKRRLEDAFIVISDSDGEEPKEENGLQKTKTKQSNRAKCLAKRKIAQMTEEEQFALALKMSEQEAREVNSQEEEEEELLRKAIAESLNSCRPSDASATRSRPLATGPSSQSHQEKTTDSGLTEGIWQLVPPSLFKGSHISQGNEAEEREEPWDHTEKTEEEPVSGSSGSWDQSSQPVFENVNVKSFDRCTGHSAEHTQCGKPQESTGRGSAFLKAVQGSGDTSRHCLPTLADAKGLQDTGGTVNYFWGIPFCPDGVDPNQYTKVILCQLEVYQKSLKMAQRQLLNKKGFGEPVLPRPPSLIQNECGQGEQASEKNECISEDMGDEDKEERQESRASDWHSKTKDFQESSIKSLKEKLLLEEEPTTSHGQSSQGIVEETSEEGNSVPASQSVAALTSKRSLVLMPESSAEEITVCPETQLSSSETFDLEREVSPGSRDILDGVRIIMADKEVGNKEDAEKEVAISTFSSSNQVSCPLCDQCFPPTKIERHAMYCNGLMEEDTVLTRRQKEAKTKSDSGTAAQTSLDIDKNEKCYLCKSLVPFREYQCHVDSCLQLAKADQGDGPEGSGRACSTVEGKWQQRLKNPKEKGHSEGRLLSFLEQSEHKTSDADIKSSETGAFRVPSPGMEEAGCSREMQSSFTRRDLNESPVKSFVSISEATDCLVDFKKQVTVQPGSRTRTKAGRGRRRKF
B6: Max-like protein X (Homo sapiens), Q9UH92 (parent)
chain: MTEPGASPEDPWVKASPVGAHAGEGRAGRARARRGAGRRGASLLSPKSPTLSVPRGCREDSSHPACAKVEYAYSDNSLDPGLFVESTRKGSVVSRANSIGSTSASSVPNTDDEDSDYHQEAYKESYKDRRRRAHTQAEQKRRDAIKRGYDDLQTIVPTCQQQDFSIGSQKLSKAIVLQKTIDYIQFLHKEKKKQEEEVSTLRKDVTALKIMKVNYEQIVKAHQDNPHEGEDQVSDQVKFNVFQGIMDSLFQSFNASISVASFQELSACVFSWIEEHCKPQTLREIVIGVLHQLKNQLY

The first test covers variants of B1. To be noted: with ldoc1_human LDOC1, O95751.
ldoc1_human LDOC1, O95751, sequence (O95751 whole entry): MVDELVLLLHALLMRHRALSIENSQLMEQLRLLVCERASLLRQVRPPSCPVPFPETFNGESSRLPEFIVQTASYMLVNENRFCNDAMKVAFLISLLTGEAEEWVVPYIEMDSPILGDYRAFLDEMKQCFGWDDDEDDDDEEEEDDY
On to E322D, for which the “effect of a mutation on the interaction” value is reported as “disrupting interaction strength”.
Consider A324V, for which the “effect of a mutation on the interaction” value is listed as “with no effect”.

The next test covers variants of B1. To be noted: with cc106_human CCDC106, Q9BWC9.
cc106_human CCDC106, Q9BWC9, sequence (Q9BWC9 whole entry): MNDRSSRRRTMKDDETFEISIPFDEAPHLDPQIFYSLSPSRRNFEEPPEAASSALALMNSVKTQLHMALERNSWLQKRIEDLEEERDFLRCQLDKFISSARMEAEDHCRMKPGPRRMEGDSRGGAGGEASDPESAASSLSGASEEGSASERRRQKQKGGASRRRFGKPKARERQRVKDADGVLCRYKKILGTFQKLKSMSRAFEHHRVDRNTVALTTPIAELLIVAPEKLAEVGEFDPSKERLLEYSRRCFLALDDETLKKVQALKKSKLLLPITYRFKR
Consider E322D, for which the “effect of a mutation on the interaction” value was “disrupting interaction strength”.
The same measure, in the same setting: as for A324V, the entry is “with no effect”.

In a further test the parent is B1. The following applies: with fbw1a_human BTRC.
In the case of E322D, the “effect of a mutation on the interaction” value is given as “disrupting interaction strength”.
A324V: the “effect of a mutation on the interaction” value is reported as “with no effect”.

The next test covers variants of B1. To be noted: with cc106_human CCDC106, Q9BWC9. This is another data set of the same source.
With A324V, the “effect of a mutation on the interaction” value was “disrupting interaction strength”.

The variants in another test derive from B2. The following applies: with rras2_human RRAS2, P62070.
With R238Q, the “effect of a mutation on the interaction” value is on record as “with no effect”.

In another test the parent is B3. The following applies: with arg39_human ARHGEF39, Q8N4T4.
Turning to V248A, the “effect of a mutation on the interaction” value is “with no effect”.

Variants of B4 are the subject of a further test. The following applies: with spg21_human SPG21, Q9NZD8.
P77L: the “effect of a mutation on the interaction” value is on record as “disrupting interaction strength”.

Variants of B5 are the subject of another test. To be noted: with uimc1_human UIMC1, Q96RL1.
On to R415Q, for which the “effect of a mutation on the interaction” value was “with no effect”.

The variants in a further test derive from B6. To be noted: with gbrl2_human GABARAPL2, P60520.
gbrl2_human GABARAPL2, P60520, sequence (P60520 whole entry): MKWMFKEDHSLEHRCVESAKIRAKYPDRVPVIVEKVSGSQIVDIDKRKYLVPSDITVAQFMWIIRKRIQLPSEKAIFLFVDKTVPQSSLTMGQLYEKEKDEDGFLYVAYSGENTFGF
For Q223R, the “effect of a mutation on the interaction” value is “with no effect”.
